Results taken from paper PMC3807708.

Legend:
[1] = target: extracellular domain of human interferon-γ receptor 1 (IFN-γ-Rx), mutant N96W (human) (UniProt P15260); experiment: SPR; His-tagged receptor immobilised on Ni2+-coated HTG chip; IFN-γ-SC as analyte; PBST; 15 °C; preliminary data of temperature dependency
[2] = target: extracellular domain of human interferon-γ receptor 1 (IFN-γ-Rx), wild type (human) (UniProt P15260); experiment: as above
[3] = target: extracellular domain of human interferon-γ receptor 1 (IFN-γ-Rx), mutant N70G (human) (UniProt P15260); experiment: as above
[4] = target: extracellular domain of human interferon-γ receptor 1 (IFN-γ-Rx), mutant H222R (human) (UniProt P15260); experiment: as above
[5] = target: extracellular domain of human interferon-γ receptor 1 (IFN-γ-Rx), mutant S95R (human) (UniProt P15260); experiment: as above
[6] = target: IFN-γ-Rx N70G + H222R (human) (UniProt P15260); experiment: SPR; ProteOn XPR36; His-tagged receptor immobilised on Ni2+-activated HTG chip; IFN-γ-SC as analyte, 1.2 to 99 nM; PBST (PBS pH 7.4, 0.005% Tween20); 25°C; 1:1 Langmuir with drift model; doubly referenced
[7] = target: IFN-γ-Rx T166Y (human) (UniProt P15260); experiment: as above
[8] = target: IFN-γ-Rx H222R (human) (UniProt P15260); experiment: as above
[9] = target: IFN-γ-Rx S71E (human) (UniProt P15260); experiment: as above
[10] = target: IFN-γ-Rx N96W + H222R (human) (UniProt P15260); experiment: as above
[11] = target: IFN-γ-Rx N96W (human) (UniProt P15260); experiment: as above
[12] = target: extracellular domain of human interferon-γ receptor 1 (IFN-γ-Rx), mutant N96W (human) (UniProt P15260); experiment: SPR; His-tagged receptor immobilised on Ni2+-coated HTG chip; IFN-γ-SC as analyte; PBST; 20 °C; preliminary data of temperature dependency
[13] = target: extracellular domain of human interferon-γ receptor 1 (IFN-γ-Rx), wild type (human) (UniProt P15260); experiment: as above
[14] = target: extracellular domain of human interferon-γ receptor 1 (IFN-γ-Rx), mutant N70G (human) (UniProt P15260); experiment: as above
[15] = target: extracellular domain of human interferon-γ receptor 1 (IFN-γ-Rx), mutant H222R (human) (UniProt P15260); experiment: as above
[16] = target: extracellular domain of human interferon-γ receptor 1 (IFN-γ-Rx), mutant S95R (human) (UniProt P15260); experiment: as above
[17] = target: extracellular domain of human interferon-γ receptor 1 (IFN-γ-Rx), mutant N96W (human) (UniProt P15260); experiment: SPR; His-tagged receptor immobilised on Ni2+-activated HTG chip (ProteOn XPR36); IFN-γ-SC as analyte, 1.2 to 99 nM; PBST (PBS pH 7.4, 0.005% Tween20); 25 °C; 1:1 Langmuir with drift; averages over four different batches of IFN-γ-SC
[18] = target: extracellular domain of human interferon-γ receptor 1 (IFN-γ-Rx), wild type (human) (UniProt P15260); experiment: as above

Substance: single-chain form of human interferon-γ (IFN-γ-SC) (ligand)
- Kd [1]: 5.55 nM
- Kd [2]: 16.8 nM
- Kd [3]: 14.7 nM
- Kd [4]: 16.4 nM
- Kd [5]: 38.6 nM
- Kd [6]: 26.9 nM
- koff [6]: 0.0391 s⁻¹
- kon [6]: 1.46e+06 M⁻¹ s⁻¹
- Kd [7]: 83.1 nM
- koff [7]: 0.0782 s⁻¹
- kon [7]: 940000 M⁻¹ s⁻¹
- Kd [8]: 29.4 nM
- koff [8]: 0.0349 s⁻¹
- kon [8]: 1.19e+06 M⁻¹ s⁻¹
- fold change of Kd against WT [9]: 2 fold
- Kd [10]: 4.16 nM
- koff [10]: 0.01 s⁻¹
- kon [10]: 2.4e+06 M⁻¹ s⁻¹
- Kd [11]: 6.34 nM
- koff [11]: 0.00909 s⁻¹
- kon [11]: 1.43e+06 M⁻¹ s⁻¹
- Kd [12]: 5.28 nM
- Kd [13]: 21.7 nM
- Kd [14]: 17.3 nM
- Kd [15]: 19.4 nM
- Kd [16]: 44.4 nM
- Kd [17]: 5.3 nM
- Kd [18]: 21 nM
